According to PMC6329447:

Assays:
[1] = target: zebrafish Olig1, mammalian two-hybrid fusion (zebrafish); experiment: two-hybrid
[2] = target: zebrafish Olig2, mammalian two-hybrid fusion (zebrafish); experiment: two-hybrid
Sox10 [3] = target: T1, Sox10 (Danio rerio (zebrafish), UniProt Q90XD1 1-485); experiment: EMSA
Olig1 [4] = target: T2, Olig1 (Danio rerio (zebrafish), UniProt Q5QJR2 1-235); experiment: EMSA
T2 sequence: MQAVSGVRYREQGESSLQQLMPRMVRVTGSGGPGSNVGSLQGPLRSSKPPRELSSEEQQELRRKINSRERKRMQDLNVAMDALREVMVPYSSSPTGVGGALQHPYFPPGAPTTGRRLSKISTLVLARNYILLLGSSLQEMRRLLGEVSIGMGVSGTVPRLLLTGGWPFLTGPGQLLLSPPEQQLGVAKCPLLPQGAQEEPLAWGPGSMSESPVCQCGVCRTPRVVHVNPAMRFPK

Olig1 [5] = target: T2, Olig1; experiment: competition
Sox10 [6] = target: T1, Sox10; experiment: competition

## zebrafish Olig1, mammalian two-hybrid fusion (natural protein)
[1]
  fold increase of luciferase activity: 8 fold
[2]
  fold increase of luciferase activity: 8 fold

B1: EbS2 (dsDNA)
DNA 1: CAAGTCGGGGCAGATGTGGACTAGAACAATAGCAGCTCC
DNA 2: GGAGCTGCTATTGTTCTAGTCCACATCTGCCCCGACTTG
Sox10 [3]
  binding result: binds
Olig1 [4]
  binding result: binds

B2: EbmutS2 (dsDNA)
DNA 1: CAAGTCGGGGTTGTAATGGACTAGAACAATAGCAGCTCC
DNA 2: GGAGCTGCTATTGTTCTAGTCCATTACAACCCCGACTTG
Olig1 [5]
  binding result: no binding

B3: EbS2mut (dsDNA)
DNA 1: CAAGTCGGGGCAGATGTGGACTAGGCCGCTAGCAGCTCC
DNA 2: GGAGCTGCTAGCGGCCTAGTCCACATCTGCCCCGACTTG
Sox10 [6]
  binding result: no binding
